Consider two molecules from article PMC5496861, “Yeast Cip1 is activated by environmental stress to inhibit Cdk1–G1 cyclins via Mcm1 and Msn2/4”.

For the data set, the target named is T1, GST-Msn2(401-704) (Saccharomyces cerevisiae, UniProt P33748 401-704).
T1 sequence: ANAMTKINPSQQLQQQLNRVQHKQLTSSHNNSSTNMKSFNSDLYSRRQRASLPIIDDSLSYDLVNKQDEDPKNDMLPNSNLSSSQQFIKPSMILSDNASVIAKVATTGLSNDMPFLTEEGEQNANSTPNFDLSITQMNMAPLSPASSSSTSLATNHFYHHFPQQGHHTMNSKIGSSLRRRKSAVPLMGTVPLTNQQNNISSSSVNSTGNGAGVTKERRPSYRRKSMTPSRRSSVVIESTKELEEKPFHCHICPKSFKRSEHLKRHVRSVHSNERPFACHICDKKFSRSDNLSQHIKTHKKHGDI
Put plainly: EMSA; 100 ng protein, 32P-end-labeled ds oligos, 4% nondenaturing polyacrylamide gel; buffer, salt, pH and temperature not given (as previously described, ref 64). The settings on record: protein: recombinant; tags: N-terminal GST (pGEX4T-1); label: 32P end label; blunt.

B1: STRE I (dsDNA)
DNA 1: GGAACTCGCGCAGGGGGAAGACATA
DNA 2: TATGTCTTCCCCCTGCGCGAGTTCC
For B1, the binding result was “binds”.

B2: STRE II (dsDNA)
DNA 1: GTATTTTCCTCCCCCTAGCTTCAAC
DNA 2: GTTGAAGCTAGGGGGAGGAAAATAC
Regarding B2, the binding result was “binds”.
